# Measurements as given in PMC3469567.
# Where “and” joins values, the source holds several entries; their conditions need not be identical. Identical values can stand only once.
# T1: bovine pancreatic ribonuclease (RNase A) (bovine), P61823
# T1 chain: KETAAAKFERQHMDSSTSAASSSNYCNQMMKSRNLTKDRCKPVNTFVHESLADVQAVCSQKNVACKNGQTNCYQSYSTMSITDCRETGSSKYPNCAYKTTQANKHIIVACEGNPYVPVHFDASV
# B1: bovine pancreatic ribonuclease (RNase A), P61823 27-150 (enzyme)
# chain: T1 chain
# Key:
# [1] = molecular target: (N67D/)K113N-BS-RNase (bovine) (UniProt P00669); experiment: SEC; thermally induced oligomerisation: 150-200 mg/ml in aqueous media (40% EtOH, with or without guanidine, and others), 45, 50 or 60°C for 1 h, then 0.2 M NaPi pH 6.7; Superdex 75
# [2] = molecular target: (N67D/)K113N-BS-RNase (bovine) (UniProt P00669); experiment: SEC; oligomers induced by lyophilisation from 40% acetic acid, re-dissolved in 0.2 or 0.4 M NaPi pH 6.7; Sephadex G-100 (0.1 M ammonium acetate pH 5.65) or Superdex 75 10/300 GL (0.2 or 0.4 M NaPi pH 6.7), room temperature; amounts as percent area of SEC peaks
# [3] = molecular target: (N67D/)K113N-BS-RNase (bovine) (UniProt P00669); experiment: SEC; thermally induced oligomerisation: 150-200 mg/ml in aqueous media (40% EtOH, with or without guanidine, and others), 45, 50 or 60°C for 1 h, then 0.2 M NaPi pH 6.7; Superdex 75; remark: listed apart in the source
# [4] = molecular target: DFDNB-cross-linked native dimer of N67D-BS-RNase (bovine) (UniProt P00669); experiment: SEC; oligomers induced by lyophilisation from 40% acetic acid, re-dissolved in 0.2 or 0.4 M NaPi pH 6.7; Sephadex G-100 (0.1 M ammonium acetate pH 5.65) or Superdex 75 10/300 GL (0.2 or 0.4 M NaPi pH 6.7), room temperature; amounts as percent area of SEC peaks
# [5] = molecular target: T1, bovine pancreatic ribonuclease (RNase …); experiment: SEC; thermally induced oligomerisation: 150-200 mg/ml in aqueous media (40% EtOH, with or without guanidine, and others), 45, 50 or 60°C for 1 h, then 0.2 M NaPi pH 6.7; Superdex 75; details: remark: other sources report otherwise
# [6] = molecular target: T1, bovine pancreatic ribonuclease (RNase …); experiment: SEC; oligomers induced by lyophilisation from 40% acetic acid, re-dissolved in 0.2 or 0.4 M NaPi pH 6.7; Sephadex G-100 (0.1 M ammonium acetate pH 5.65) or Superdex 75 10/300 GL (0.2 or 0.4 M NaPi pH 6.7), room temperature; amounts as percent area of SEC peaks; details: remark: other sources report otherwise
molecule,measurement,setting,value
(N67D/)K113N-BS-RNase (from UniProt P00669 27-150) (enzyme),stoichiometry N,[1],> 4
same,stoichiometry N,[2],4
same,yield of dimer D (% of the total) (% of the total),[2],53.7
same,yield of hexamers H (% of the total) (% of the total),[2],10.9
same,yield of larger oligomers L.O. (% of the total) (% of the total),[2],9.9
same,yield of tetramer TT1/C (% of the total) (% of the total),[2],13.3
same,yield of tetramer TT2/N (% of the total) (% of the total),[2],12.2
same,stoichiometry N,[3],4
DFDNB-cross-linked native dimer of N67D-BS-RNase (from UniProt P00669 27-150) (enzyme),stoichiometry N,[4],4
B1,stoichiometry N,[5],2
same,stoichiometry N,[6],2 and 3 and 4
